Test results: patent US20190184035, “BCL11A HOMING ENDONUCLEASE VARIANTS, COMPOSITIONS, AND METHODS OF USE” (bluebird bio, Inc., published 2019)

Columns and labels:
[1] = test system: CCR5 megaTAL (Artificial); assay: cell_activity; details: human CD34+ cells; full megaTAL site not given, HE site given
[2] = molecular target: T1, BCL11A.B4.A3 I-OnuI homing endonuclease variant (Ophiostoma novo-ulmi); assay: flow; yeast surface display equilibrium binding titration
T1 chain: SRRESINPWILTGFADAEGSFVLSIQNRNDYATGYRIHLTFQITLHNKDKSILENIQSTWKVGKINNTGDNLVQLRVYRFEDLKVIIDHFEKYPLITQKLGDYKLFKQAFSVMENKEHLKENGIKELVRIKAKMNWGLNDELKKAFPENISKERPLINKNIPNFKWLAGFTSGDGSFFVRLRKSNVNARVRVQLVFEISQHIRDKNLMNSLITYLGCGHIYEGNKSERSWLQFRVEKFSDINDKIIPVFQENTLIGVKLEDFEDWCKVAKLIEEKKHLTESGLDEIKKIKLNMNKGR
Text: The DNA binding affinity and cleavage specificity of the I-OnuI variant BCL11A.B4.A3 was characterized. A plasmid encoding the BCL11A.B4.A3 variant identified during reprogramming (SEQ ID NO: 34) was transformed into S. cerevisiae for surface display.

[3] = molecular target: T2, BCL11A.B4.A3 I-OnuI homing endonuclease variant (mammalian expression) (Ophiostoma novo-ulmi); assay: cell_activity; HEK 293T chromosomal mCherry reporter; details: tags: mammalian expression plasmid
T2 chain: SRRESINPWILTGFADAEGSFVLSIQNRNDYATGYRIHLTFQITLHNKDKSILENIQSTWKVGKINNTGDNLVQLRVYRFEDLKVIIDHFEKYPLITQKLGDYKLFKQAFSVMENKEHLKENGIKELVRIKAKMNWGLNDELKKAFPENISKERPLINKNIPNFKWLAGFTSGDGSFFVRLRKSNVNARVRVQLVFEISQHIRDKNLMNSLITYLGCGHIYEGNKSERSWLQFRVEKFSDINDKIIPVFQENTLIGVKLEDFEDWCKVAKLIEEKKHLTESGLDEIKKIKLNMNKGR
Description: The activity of reprogrammed I-OnuI HEs that target the GATA-1 motif in the BCL11A gene was measured using a chromosomally integrated fluorescent reporter system (Certo et. al., 2011). Fully reprogrammed I-OnuI HEs that bind and cleave the BCL11A target sequence were cloned into mammalian expression plasmids and then individually transfected into a HEK 293T […] cell line that was reprogrammed to contain the BCL11A target sequence upstream of an out-of-frame gene encoding the fluorescent mCherry protein. Cleavage of the embedded target site by the HE and the subsequent accumulation of small insertions or deletions, caused by DNA repair via the non-homologous end joining (NHEJ) pathway, results in approximately one out of three repaired loci placing the fluorescent reporter gene back “in-frame”. mCherry fluorescence is therefore a readout of endonuclease activity at the chromosomally embedded target sequence. […] FIG. 4A.
A secondary I-OnuI variant library was generated by performing random mutagenesis one of the reprogrammed I-OnuI HEs that targets the BCL11A target site, identified in the initial reporter screen (BCL11.A.B4, SEQ ID NO: 6). In addition, display-based flow sorting was performed under more stringent cleavage conditions (pH adjusted to 7.2) in an effort to isolate variants with improved catalytic efficiency. FIG. 4B. […]

Molecule | activity [1] [% indels] | Kd [2] [nM] | activity [3] [fold vs BCL11A.B4]
CTTCCAGGAATTCTTTGGCCTG (double strand) [CCR5 HE target site] | 10 | – | –
BCL11A HE target site (dsDNA) DNA 1: CAGTTGCTTTTATCACAGGCTC DNA 2: GAGCCTGTGATAAAAGCAACTG | – | ~0.5 | ~3
